T1: chloroplast ribosomal protein bS1c (spinach (Spinacia oleracea) (endogenous …, UniProt P29344 42-411))
T1 sequence (looked up): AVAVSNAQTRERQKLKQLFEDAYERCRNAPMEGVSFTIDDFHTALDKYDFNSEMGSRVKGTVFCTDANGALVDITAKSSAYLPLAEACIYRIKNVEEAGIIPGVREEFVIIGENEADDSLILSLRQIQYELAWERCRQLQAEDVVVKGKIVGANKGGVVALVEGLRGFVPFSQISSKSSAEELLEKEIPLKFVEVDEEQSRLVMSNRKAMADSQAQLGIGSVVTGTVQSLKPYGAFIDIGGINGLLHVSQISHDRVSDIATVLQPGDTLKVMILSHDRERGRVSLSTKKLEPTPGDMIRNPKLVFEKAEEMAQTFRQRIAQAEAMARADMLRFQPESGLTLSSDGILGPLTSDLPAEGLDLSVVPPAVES

T2: chloroplast ribosomal protein uL23c (spinach (Spinacia oleracea) (endogenous …, UniProt Q9LWB5 77-198))
T2 sequence (looked up): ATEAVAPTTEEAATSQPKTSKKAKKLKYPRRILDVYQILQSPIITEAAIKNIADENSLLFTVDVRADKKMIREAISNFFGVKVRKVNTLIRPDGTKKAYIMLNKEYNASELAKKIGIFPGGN

T3: chloroplast ribosomal protein bL20c (spinach (Spinacia oleracea) (endogenous …, UniProt P28803 1-128))
T3 sequence (looked up): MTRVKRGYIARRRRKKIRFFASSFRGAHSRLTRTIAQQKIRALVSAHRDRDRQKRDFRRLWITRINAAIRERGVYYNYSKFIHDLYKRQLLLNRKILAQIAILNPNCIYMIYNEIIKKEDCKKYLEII

T4: chloroplast ribosomal protein uS13c (spinach (Spinacia oleracea) (endogenous …, UniProt P82163 48-172))
T4 sequence (looked up): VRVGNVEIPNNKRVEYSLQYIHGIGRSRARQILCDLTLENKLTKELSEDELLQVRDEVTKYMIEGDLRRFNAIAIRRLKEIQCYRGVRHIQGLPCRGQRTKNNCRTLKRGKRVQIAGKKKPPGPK

T5: chloroplast ribosomal protein uL13c (spinach (Spinacia oleracea) (endogenous …, UniProt P12629 48-250))
T5 sequence (looked up): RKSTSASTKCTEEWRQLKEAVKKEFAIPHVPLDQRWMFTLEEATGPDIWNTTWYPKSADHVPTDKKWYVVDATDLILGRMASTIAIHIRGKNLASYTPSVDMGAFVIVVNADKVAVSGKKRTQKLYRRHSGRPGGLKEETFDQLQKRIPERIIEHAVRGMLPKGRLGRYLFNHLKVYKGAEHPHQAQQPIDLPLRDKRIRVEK

B1: chloroplast ribosomal protein uS5c (natural protein, UniProt Q9ST69 56-308, looked up)
chain: CIKKDDIDITFFEQDNPDEEITFDPPEKPEGYIPPRAVDEPPFESEEEIALAYEELYGAAYSGESLLGNDVYAMDSKIKKATGFGSKSKKEKIRDGFEENVVQVRRVTKVVKGGKHMRFRAIVVVGDKKGQVGVGVGKAKEVVSAVQKAAVDARRNIITVPMTKYLTFPHRNEADYGAARVMLRPAAPGTGVIAGGAVRTVLEMAGVENALGKQLGSNNALNNARATIVAVQTMRQFSDVARDRGIPMEELWK
B2: chloroplast ribosomal protein uL29c (natural protein, UniProt P82248 59-168, looked up)
chain: VKKEDELKELRTKTNEQLNEEILQLKGELFMLRLQRSARENFKPSDFGRMRKRVARMLTVKREREIEQGVGKRLSRKLDKAWKRSIVVRPPPSLKKLQEKATAEAEAEKA
B3: plastid-specific ribosomal protein cL38 (natural protein, UniProt P82411 48-116, looked up)
chain: SSRPQKKGTAHHMKTRPKKTARWDIKRGPAVYPPLPPLPAEWTIVSSAVDEADSSSSTTSSSAEIAQSA
B4: chloroplast ribosomal protein bL21c (natural protein, UniProt P24613 56-256, looked up)
chain: AKRRRFQEIPEELKAEFEEFQRPPNQKPQLSDVLPDDFQAPEPGTPEYNDIINQFLPKKGPPPPREEIFAVVVIGSRQYIVIPGRWIYTQRLKGATVNDKIVLNKVLLVGTKASTYIGTPIVTNAAVHAVVEEQLLDDKVIVFKYKKKKNYRRNIGHRQPITRIKITGITGYEDYPASTLEAEVEAKEEAEAEAEAEAVPV
B5: chloroplast ribosomal protein uL22c (natural protein, UniProt P09594 1-199, looked up)
chain: MGFFKKKEKKAEFDVFRLYGLHHPEPGKCDEITTRGYSISMSVDKARRVIDQIRGRSYAETLMILELMPYRACYPIFKLIYSAAANASHNKQFNKANLIISKAEVNKGITLKKVKPRARGRSYMIKRPTCHITIVLRDITHFDSYDKFLESLTPKKLIALLGLMSTGRRRELLCGRFRENHKIKSFLYKIALFKRYEVM
B6: chloroplast ribosomal protein uS2c (natural protein, UniProt P08242 1-236, looked up)
chain: MTRRYWNINLEEMMEAGVHFGHGTRKWNPRMSPYISAKCKGIHIINLTRTARFLSEACDLVFDASSRGKQFLIVGTKNKAADSVARAAIRARCHYVNKKWLGGMLTNWSTTETRLHKFRDLRMEQTAGRLARLPKRDAAVVKRQLSHLQTYLGGIKYMTGLPDIVIIVDQQEEYTALRECITLGIPTICLIDTNCNPDLADISIPANDDAIASIRLILTKLVFAICEGRSSYIRNP
B7: chloroplast ribosomal protein uS3c (natural protein, UniProt P09595 1-218, looked up)
chain: MGQKINPLGFRLGTTQSHYSLWFSQPKNYAEGLQEDQKIRDCIKNYVQKNTKTSSGVEGIARIEIQKRIDLIQVIIHMGFPKLLIENRPQGVEDLKINVQKELNCVNRKLNIAITRIAKPYGDPNILAEFIAGQLKSRVSFRKAMKKAIELTEQADTKGIQIQIAGRIDGKEIARIEWIREGRVPLQTIRAKIDYCAYTVRTIYGVLGIKIWIFMGEE

What was measured:
Assay in all cases: cryo-EM structure
[1] = biological target: T1, chloroplast ribosomal protein bS1c
[2] = biological target: T2, chloroplast ribosomal protein uL23c
[3] = biological target: B4
[4] = biological target: T3, chloroplast ribosomal protein bL20c
[5] = biological target: T4, chloroplast ribosomal protein uS13c
[6] = biological target: T5, chloroplast ribosomal protein uL13c
[7] = biological target: B1

B1
binding result [1]: binds

B2
binding result [2]: binds

B3
binding result [3]: binds
binding result [4]: binds

GRGDRKTAKGKRFNHSFGNARPKNKNKGRGPPKAPIFPKGDPSQKED (natural protein, UniProt P47910 55-101, looked up) [plastid-specific ribosomal protein bTHXc]
binding result [5]: binds

B4
binding result [6]: binds

B5
binding result [6]: binds

B6
binding result [1]: binds
binding result [7]: binds

B7
binding result [7]: binds

— PMC5694952 (The EMBO Journal, 2016)
